From paper PMC10397247
Each block holds one binder with its values, some of them ahead of it.

Tests used:
Core_NIII-es_KKKE = target: T1, Core_NIII-es_KKKE; test: two-hybrid library CCmax; conditions: mean of both orientations;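 also: natural log of median RNA to DNA barcode read ratio; higher means stronger binding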
T1 chain: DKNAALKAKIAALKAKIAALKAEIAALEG

Core_NNNI-es_KKEK = target: T2, Core_NNNI-es_KKEK; test: two-hybrid library CCmax; conditions: mean of both orientations;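 also: natural log of median RNA to DNA barcode read ratio; higher means stronger binding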
T2 chain: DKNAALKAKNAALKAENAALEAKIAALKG

Core_IIIN-es_KEEK = target: T3, Core_IIIN-es_KEEK; test: two-hybrid library CCmax; conditions: mean of both orientations;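 also: natural log of median RNA to DNA barcode read ratio; higher means stronger binding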
T3 chain: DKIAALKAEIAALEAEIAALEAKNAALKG

Core_IIII-es_KEEK = target: T4, Core_IIII-es_KEEK; test: two-hybrid library CCmax; conditions: mean of both orientations;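 also: natural log of median RNA to DNA barcode read ratio; higher means stronger binding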
T4 chain: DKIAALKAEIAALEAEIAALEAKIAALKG

P5-AA-12HAA-A = target: T5, P5-AA-12HAA-A; test: two-hybrid library CCmax; conditions: mean of both orientations;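 also: natural log of median RNA to DNA barcode read ratio; higher means stronger binding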
T5 chain: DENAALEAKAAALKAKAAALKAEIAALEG

4H485-AA = target: T6, 4H485-AA; test: two-hybrid library CCmax; conditions: mean of both orientations;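 also: natural log of median RNA to DNA barcode read ratio; higher means stronger binding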
T6 chain: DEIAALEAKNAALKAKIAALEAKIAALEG

GCN2_T = test: two-hybrid library CCmax; conditions: mean of both orientations
4H3590-AA = target: T7, 4H3590-AA; test: two-hybrid library CCmax
T7 chain: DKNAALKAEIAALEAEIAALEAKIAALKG

4H3697-AA = target: T8, 4H3697-AA; test: two-hybrid library CCmax; conditions: mean of both orientations
T8 chain: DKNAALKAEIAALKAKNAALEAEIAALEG

4H3905-AA = target: T9, 4H3905-AA; test: two-hybrid library CCmax; conditions: mean of both orientations
T9 chain: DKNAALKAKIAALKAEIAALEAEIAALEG

4H43-AA = target: T10, 4H43-AA; test: two-hybrid library CCmax; conditions: mean of both orientations
T10 chain: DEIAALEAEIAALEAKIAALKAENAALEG

4H629-AA = target: T11, 4H629-AA; test: two-hybrid library CCmax; conditions: mean of both orientations
T11 chain: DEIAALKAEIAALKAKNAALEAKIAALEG

P5-AA-12HAA-Y = target: T12, P5-AA-12HAA-Y; test: two-hybrid library CCmax; conditions: mean of both orientations
T12 chain: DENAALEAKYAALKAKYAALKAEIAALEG

P5-AA-12HAA-H = target: T13, P5-AA-12HAA-H; test: two-hybrid library CCmax; conditions: mean of both orientations
T13 chain: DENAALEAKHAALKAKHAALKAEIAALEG

4H745-AA = target: T14, 4H745-AA; test: two-hybrid library CCmax; conditions: mean of both orientations
T14 chain: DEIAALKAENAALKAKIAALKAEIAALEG

P5-AA-1HAA-N = target: T15, P5-AA-1HAA-N; test: two-hybrid library CCmax; conditions: mean of both orientations
T15 chain: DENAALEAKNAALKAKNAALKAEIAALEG

4H797-AA = target: T16, 4H797-AA; test: two-hybrid library CCmax; conditions: mean of both orientations
T16 chain: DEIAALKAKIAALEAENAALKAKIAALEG

P5-AA-12HAA-D = target: T17, P5-AA-12HAA-D; test: two-hybrid library CCmax; conditions: mean of both orientations
T17 chain: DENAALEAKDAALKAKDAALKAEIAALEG

P5-AA-12HAA-T = target: T18, P5-AA-12HAA-T; test: two-hybrid library CCmax; conditions: mean of both orientations
T18 chain: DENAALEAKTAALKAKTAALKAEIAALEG

4H_BCR = target: T19, 4H_BCR; test: two-hybrid library CCmax; conditions: mean of both orientations
T19 chain: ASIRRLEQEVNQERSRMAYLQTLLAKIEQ

P5-AA-12HAA-R = target: T20, P5-AA-12HAA-R; test: two-hybrid library CCmax; conditions: mean of both orientations
T20 chain: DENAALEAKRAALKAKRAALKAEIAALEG

4H3865-AA = target: T21, 4H3865-AA; test: two-hybrid library CCmax; conditions: mean of both orientations
T21 chain: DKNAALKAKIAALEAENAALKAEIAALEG

4H451-AA = target: T22, 4H451-AA; test: two-hybrid library CCmax; conditions: mean of both orientations
T22 chain: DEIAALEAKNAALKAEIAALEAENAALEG

4H3625-AA = target: T23, 4H3625-AA; test: two-hybrid library CCmax; conditions: mean of both orientations
T23 chain: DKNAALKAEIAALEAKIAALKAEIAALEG

4H891-AA = target: T24, 4H891-AA; test: two-hybrid library CCmax
T24 chain: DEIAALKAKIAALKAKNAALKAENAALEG

4H536-AA = target: T25, 4H536-AA; test: two-hybrid library CCmax; conditions: mean of both orientations
T25 chain: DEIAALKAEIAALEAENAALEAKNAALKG

4H710-AA = target: T26, 4H710-AA; test: two-hybrid library CCmax; conditions: mean of both orientations
T26 chain: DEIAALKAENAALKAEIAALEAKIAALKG

4H_APH = target: T27, 4H_APH; test: two-hybrid library CCmax; conditions: mean of both orientations
T27 chain: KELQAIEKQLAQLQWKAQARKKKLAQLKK

P5-AA-12HAA-S = target: T28, P5-AA-12HAA-S; test: two-hybrid library CCmax; conditions: mean of both orientations
T28 chain: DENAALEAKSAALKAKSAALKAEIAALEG

4H3753-AA = target: T29, 4H3753-AA; test: two-hybrid library CCmax; conditions: mean of both orientations
T29 chain: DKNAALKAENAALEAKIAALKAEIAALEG

P5-AA-12HAA-L = target: T30, P5-AA-12HAA-L; test: two-hybrid library CCmax; conditions: mean of both orientations
T30 chain: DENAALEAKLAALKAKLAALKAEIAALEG

O11-AA = target: T31, O11-AA; test: two-hybrid library CCmax; conditions: mean of both orientations
T31 chain: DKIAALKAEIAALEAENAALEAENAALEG

O14-AA = target: T32, O14-AA; test: two-hybrid library CCmax; conditions: mean of both orientations
T32 chain: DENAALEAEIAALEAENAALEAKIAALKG

P5-AA-12HAA-K = target: T33, P5-AA-12HAA-K; test: two-hybrid library CCmax; conditions: mean of both orientations
T33 chain: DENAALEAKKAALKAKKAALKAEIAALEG

O13-AA = target: T34, O13-AA; test: two-hybrid library CCmax; conditions: mean of both orientations
T34 chain: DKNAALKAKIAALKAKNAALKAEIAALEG

4H_GCN4 = test: two-hybrid library CCmax
P5-AA-12HAA-V = target: T35, P5-AA-12HAA-V; test: two-hybrid library CCmax; conditions: mean of both orientations
T35 chain: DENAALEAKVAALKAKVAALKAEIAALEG

4H850-AA = target: T36, 4H850-AA; test: two-hybrid library CCmax; conditions: mean of both orientations
T36 chain: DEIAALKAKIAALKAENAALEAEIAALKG

P5-AA-12HAA-E = target: T37, P5-AA-12HAA-E; test: two-hybrid library CCmax; conditions: mean of both orientations
T37 chain: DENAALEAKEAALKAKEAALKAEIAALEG

4H384-AA = target: T38, 4H384-AA; test: two-hybrid library CCmax; conditions: mean of both orientations
T38 chain: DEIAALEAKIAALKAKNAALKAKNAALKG

4H909-AA = target: T39, 4H909-AA; test: two-hybrid library CCmax; conditions: mean of both orientations
T39 chain: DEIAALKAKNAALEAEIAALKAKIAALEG

4H458-AA = target: T40, 4H458-AA; test: two-hybrid library CCmax; conditions: mean of both orientations
T40 chain: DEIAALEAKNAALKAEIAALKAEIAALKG

4H4038-AA = target: T41, 4H4038-AA; test: two-hybrid library CCmax; conditions: mean of both orientations
T41 chain: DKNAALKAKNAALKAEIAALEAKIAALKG

4H570-AA = target: T42, 4H570-AA; test: two-hybrid library CCmax; conditions: mean of both orientations
T42 chain: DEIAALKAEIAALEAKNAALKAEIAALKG

4H510-AA = target: T43, 4H510-AA; test: two-hybrid library CCmax; conditions: mean of both orientations
T43 chain: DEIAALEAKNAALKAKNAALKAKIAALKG

4H930-AA = target: T44, 4H930-AA; test: two-hybrid library CCmax; conditions: mean of both orientations
T44 chain: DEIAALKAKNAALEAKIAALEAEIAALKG

4H94-AA = target: T45, 4H94-AA; test: two-hybrid library CCmax; conditions: mean of both orientations
T45 chain: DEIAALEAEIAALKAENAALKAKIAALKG

Core_NNNN-es_KEEK = target: T46, Core_NNNN-es_KEEK; test: two-hybrid library CCmax; conditions: mean of both orientations
T46 chain: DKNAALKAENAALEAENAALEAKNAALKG

4H342-bN = target: T47, 4H342-bN; test: two-hybrid library CCNG1
T47 chain: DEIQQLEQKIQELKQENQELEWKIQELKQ

4H2944-bN = target: T48, 4H2944-bN; test: two-hybrid library CCNG1
T48 chain: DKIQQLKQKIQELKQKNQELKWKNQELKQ

4H2696-bN = target: T49, 4H2696-bN; test: two-hybrid library CCNG1
T49 chain: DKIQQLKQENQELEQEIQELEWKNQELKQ

4H2883-bN = target: T50, 4H2883-bN; test: two-hybrid library CCNG1
T50 chain: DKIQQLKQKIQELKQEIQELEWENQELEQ

4H19-bN = target: T51, 4H19-bN; test: two-hybrid library CCNG1
T51 chain: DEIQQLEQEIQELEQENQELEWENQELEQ

4H2937-bN = target: T52, 4H2937-bN; test: two-hybrid library CCNG1
T52 chain: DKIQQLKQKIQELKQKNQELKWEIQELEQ

4H48-bN = target: T53, 4H48-bN; test: two-hybrid library CCNG1
T53 chain: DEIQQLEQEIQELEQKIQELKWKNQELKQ

4H491-bN = target: T54, 4H491-bN; test: two-hybrid library CCNG1
T54 chain: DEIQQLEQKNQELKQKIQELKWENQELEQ

Core_INII-es_KKEK = target: T55, Core_INII-es_KKEK; test: two-hybrid library CCmax; conditions: mean of both orientations
T55 chain: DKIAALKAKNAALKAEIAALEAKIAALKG

4H_GCN4, sequence (chain, as listed by the source): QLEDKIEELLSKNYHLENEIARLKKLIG

interaction score (Core_NIII-es_KKKE): 2.14
Binder: DENAALEAEIAALEAEIAALEAKIAALKG [Core_NIII-es_EEEK]

interaction score (Core_NNNI-es_KKEK): 2.2
Binder: DENAALEAENAALEAKNAALKAEIAALEG [Core_NNNI-es_EEKE]

interaction score (Core_IIIN-es_KEEK): 1.73
Binder: DEIAALEAKIAALKAKIAALKAENAALEG [Core_IIIN-es_EKKE]

interaction score (Core_NNNN-es_KEEK): -0.488
Binder: DENAALEAKNAALKAKNAALKAENAALEG [Core_NNNN-es_EKKE]

interaction score (Core_INII-es_KKEK): 2.11
Binder: DEIAALEAENAALEAKIAALKAEIAALEG [Core_INII-es_EEKE]

The next lines start with the binder.

Binder: DEIAALEAKIAALKAKIAALKAEIAALEG [Core_IIII-es_EKKE]
interaction score (Core_IIII-es_KEEK): 2.36

Binder: DKNAALKAEIAALEAEIAALEAKIAALKG [4H3590-AA]
interaction score (P5-AA-12HAA-A): 1.75 | interaction score (4H485-AA): 1.8 | interaction score (GCN2_T): -0.424 | interaction score (4H3590-AA): 2.25 | interaction score (4H3697-AA): -0.287 | interaction score (4H3905-AA): 2.01 | interaction score (4H43-AA): 1.98 | interaction score (4H629-AA): -0.923 | interaction score (P5-AA-12HAA-Y): 2.53 | interaction score (P5-AA-12HAA-H): 1.78 | interaction score (4H745-AA): 1.02 | interaction score (P5-AA-1HAA-N): -0.0553 | interaction score (4H797-AA): -1.01 | interaction score (P5-AA-12HAA-D): -1.25 | interaction score (P5-AA-12HAA-T): 1.63 | interaction score (4H_BCR): -0.0889 | interaction score (P5-AA-12HAA-R): 1.92 | interaction score (4H3865-AA): -1.18 | interaction score (4H451-AA): -1.08 | interaction score (4H3625-AA): 2.07 | interaction score (4H891-AA): -0.048 | interaction score (4H536-AA): -0.687 | interaction score (4H710-AA): -1.14 | interaction score (4H_APH): -0.247 | interaction score (P5-AA-12HAA-S): 1.88 | interaction score (4H3753-AA): 0.435 | interaction score (P5-AA-12HAA-L): 2.42 | interaction score (O11-AA): -0.698 | interaction score (O14-AA): -1.17 | interaction score (P5-AA-12HAA-K): 2.23 | interaction score (O13-AA): 1.33 | interaction score (4H_GCN4): -1.16 | interaction score (P5-AA-12HAA-V): 2.25 | interaction score (4H850-AA): -0.0746 | interaction score (P5-AA-12HAA-E): -0.101 | interaction score (4H384-AA): 1.26 | interaction score (4H909-AA): -1.14 | interaction score (4H458-AA): 1.13 | interaction score (4H4038-AA): -0.327 | interaction score (4H570-AA): -0.136 | interaction score (4H510-AA): -0.0505 | interaction score (4H930-AA): -1.4 | interaction score (4H94-AA): -1.15

Binder: DEIQQLEQEIQELEQENQELEWENQELEQ [4H19-bN]
interaction score (4H342-bN): -1.48 | interaction score (4H2944-bN): 2.27 | interaction score (4H2696-bN): -0.528 | interaction score (4H2883-bN): -2.16 | interaction score (4H19-bN): -0.738 | interaction score (4H2937-bN): -0.594 | interaction score (4H48-bN): -0.58 | interaction score (4H491-bN): -0.636
